This passage reports stoichiometry N, Kd and dH results from paper PMC2766095.

What is called stoichiometry N is the number of molecules, sites or subunits per partner or assembly. As a reminder, the Kd is the equilibrium constant for the complex coming apart. Read a high Kd as lower affinity.

The target of assay [1] is ST2 extracellular domain (ectodomain) (human) (UniProt Q01638). The assay is described as follows: ITC. (In general: ITC needs no label: the signal is the heat of the interaction.)
For assay [2], the target named is ST2-Fc fusion protein (R&D Systems) (UniProt Q01638). The experiment in a line: SPR.
For assay [3], the target named is IL-33/ST2 complex (human) (UniProt Q01638). The assay is described as follows: ITC.

In turn, “human IL-33 (interleukin-33), recombinant mature IL-1-like form (ligand)” had a stoichiometry N in assay [1] of 1. Regarding IL-33 E34K (ligand), the dissociation constant (Kd) in assay [2] is 3.11 nM. In assay [3], “IL-1 receptor accessory protein (IL-1RAcP) extracellular domain (from UniProt Q9NPH3 21-367)” registered a Kd of 76 nM, a dH of -11 kcal/mol and a stoichiometry N of 1.
